PMC8421139 (Nucleic Acids Research, 2021)

Biological target: Flag-DHX9 recombinant protein (UniProt Q08211 1-1270)
Test: pull-down

Sequence of Flag-DHX9 recombinant protein (Q08211 whole entry): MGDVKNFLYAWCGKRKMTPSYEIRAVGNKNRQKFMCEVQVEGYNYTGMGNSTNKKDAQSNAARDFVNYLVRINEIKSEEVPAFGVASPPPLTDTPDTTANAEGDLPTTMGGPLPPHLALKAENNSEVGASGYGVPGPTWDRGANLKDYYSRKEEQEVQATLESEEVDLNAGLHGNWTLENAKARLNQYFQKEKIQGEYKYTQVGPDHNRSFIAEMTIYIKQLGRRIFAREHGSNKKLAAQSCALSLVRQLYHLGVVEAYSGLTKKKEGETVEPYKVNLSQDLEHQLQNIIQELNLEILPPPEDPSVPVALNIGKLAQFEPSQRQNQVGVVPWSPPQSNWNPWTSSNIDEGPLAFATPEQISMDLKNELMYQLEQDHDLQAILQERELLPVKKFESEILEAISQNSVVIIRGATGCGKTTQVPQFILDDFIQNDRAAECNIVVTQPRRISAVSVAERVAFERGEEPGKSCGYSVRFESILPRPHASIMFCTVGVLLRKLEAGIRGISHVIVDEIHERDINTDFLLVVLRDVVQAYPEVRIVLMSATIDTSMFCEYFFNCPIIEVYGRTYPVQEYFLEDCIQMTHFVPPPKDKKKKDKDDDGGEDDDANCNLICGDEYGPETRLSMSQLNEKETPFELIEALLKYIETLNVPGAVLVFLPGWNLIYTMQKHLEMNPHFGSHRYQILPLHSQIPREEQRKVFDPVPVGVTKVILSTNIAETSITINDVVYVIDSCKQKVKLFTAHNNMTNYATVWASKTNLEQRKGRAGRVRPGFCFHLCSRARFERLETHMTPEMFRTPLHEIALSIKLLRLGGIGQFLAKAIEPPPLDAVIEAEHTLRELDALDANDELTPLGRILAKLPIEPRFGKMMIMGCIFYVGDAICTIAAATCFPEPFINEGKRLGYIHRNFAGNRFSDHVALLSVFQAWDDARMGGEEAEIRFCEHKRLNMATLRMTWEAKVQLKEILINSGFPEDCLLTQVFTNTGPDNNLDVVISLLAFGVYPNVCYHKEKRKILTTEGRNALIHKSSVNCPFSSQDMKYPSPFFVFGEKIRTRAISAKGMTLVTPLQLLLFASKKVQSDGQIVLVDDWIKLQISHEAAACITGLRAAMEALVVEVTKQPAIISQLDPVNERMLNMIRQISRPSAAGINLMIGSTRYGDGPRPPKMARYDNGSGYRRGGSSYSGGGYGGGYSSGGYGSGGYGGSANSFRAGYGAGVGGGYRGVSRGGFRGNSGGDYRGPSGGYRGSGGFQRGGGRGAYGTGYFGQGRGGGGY

B1: GST-TDRD3 (natural protein)
chain: MAQVAGAALSQAGWYLSDEGIEACTSSPDKVNVNDIILIALNTDLRTIGKKFLPSDINSGKVEKLEGPCVLQIQKIRNVAAPKDNEESQAAPRMLRLQMTDGHISCTAVEFSYMSKISLNTPPGTKVKLSGIVDIKNGFLLLNDSNTTVLGGEVEHLIEKWELQRSLSKHNRSNIGTEGGPPPFVPFGQKCVSHVQVDSRELDRRKTLQVTMPVKPTNDNDEFEKQRTAAIAEVAKSKETKTFGGGGGGARSNLNMNAAGNRNREVLQKEKSTKSEGKHEGVYRELVDEKALKHITEMGFSKEASRQALMDNGNNLEAALNVLLTSNKQKPVMGPPLRGRGKGRGRIRSEDEEDLGNARPSAPSTLFDFLESKMGTLNVEEPKSQPQQLHQGQYRSSNTEQNGVKDNNHLRHPPRNDTRQPRNEKPPRFQRDSQNSKSVLEGSGLPRNRGSERPSTSSVSEVWAEDRIKCDRPYSRYDRTKDTSYPLGSQHSDGAFKKRDNSMQSRSGKGPSFAEAKENPLPQGSVDYNNQKRGKRESQTSIPDYFYDRKSQTINNEAFSGIKIEKHFNVNTDYQNPVRSNSFIGVPNGEVEMPLKGRRIGPIKPAGPVTAVPCDDKIFYNSGPKRRSGPIKPEKILESSIPMEYAKMWKPGDECFALYWEDNKFYRAEVEALHSSGMTAVVKFIDYGNYEEVLLSNIKPIQTEAWEEEGTYDQTLEFRRGGDGQPRRSTRPTQQFYQPPRARN
B1: binds.
